{"source": "paper PMC7101364", "about": "“The biofilm-associated surface protein Esp of Enterococcus faecalis forms amyloid-like fibers” (NPJ Biofilms and Microbiomes, 2020)", "biological_target": "the molecule itself", "test": "visible aggregation in tubes; 2 uM rEsp_N in phosphate-citrate buffer, pH 3.6 to 8 tested; aggregates at pH 4.0-4.2 seen as a ring on the glass wall after 24 h at 37 °C, 200 rpm", "data": [{"protein": "recombinant Esp_N domain (N-terminal domain of the enterococcal surface protein Esp, amino acids 50-743) (domain or fragment, Enterococcal surface protein Esp of Enterococcus faecalis, amplified from strain 11279; N-terminal domain, amino acids 50-743 of the 1873-residue protein; No cleavage of the tag is mentioned; also called N-terminus of Esp; not shown: His tag (from the vector pET46-Ek/LIC)) QMGEGRLANYSASGNTFQENPGYTKNYNFSDLQFNPKAITGDVLQGNTIDFEVYGKHNIAASTANWEIRLQLDERLAQYVEKIQVDPKKGVGNSRRTFVRINDSLGRPTNIWKVNYIRANDGLFAGAETTDTQTAPNGVITFEKNLDEIFKEIGADNLKSDRLMYRIYLVSHQDDDKIVPGIESTGYFLTDQDDFYNKLDVSENNSDQFKHGSVNTKYEEANIQTKDGSGSTGANGAIILDHKLTKEKNFSYSTSAKGTPWYANYKIDERLVPYVSGIQMHMVQADKVAYNVAFESGKKVADLAIERREGHENYGMGSITDNDLTKLIDFANASPRPIVVRYVLQLTKPLDEILEEMKAADKIEENAPFGEDFIFDSWLSDTNKKLIQNTYGTGYYYLQDIDGDGNPDDKEESGDTNPYIGKPELEEVYDVDTTVKGKVFIHELAGTGHKAQLVDKEGTVLAEKTIAPNEKDGAPISDTVEFEFTGVDSSKLIAKDELKIQIVSPGFDKPEEGSTVIKESPKAVDKQTVVVGFKPDAKESIRNNKNLPEDAEYSWKTEPDTSNVTDSTKGIVTVKIGNRTFDVDVEFAVKASQAMENDATYVPITTTPETTIQSGKPTFDKPDVPLANDAFSVLDVYNKDFGNASVDANTGIVTFTPAKGVGESEPITGTIPIKIVYQDGSVGTTDLAVTVSKN", "values": [{"measurement": "binding result", "result": "binds"}]}]}
